Measurements reported in the nanobody polyreactivity screen of Harvey et al. (2022).

assay: yeast display, Sf9 membrane polyspecificity reagent, FACS + sequencing; frameworks hold sequencing errors
Procedure, shortened: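 Galactose-induced (36–48 hours) yeast carrying a synthetic nanobody display library were exposed to 10% biotinylated, detergent-solubilized Sf9 membrane reagent at 4 °C for 1 hour. FACS followed streptavidin microbead enrichment, using low and high (top ~1%) gates for expression (anti-HA) and reagent binding (streptavidin). Colony PCR, MiSeq 2 × 250 sequencing and CDR-length filtering followed. Labels for polyreactivity reflect the gate of origin.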

Row | Sequence | polyreactivity (PSR sort gate)
1 | QVQLVESGGGLVQAGGSLRLSCAASGRIFTNNAMGWYRQAPGKERELVAAISRSGGRTYYADSVKGRFTISRDNAKNTVYLQMNSLKPEDTAVYYCAAVHLYYGYNSPFTMDYWGQGTQVTVSS | high polyreactivity
2 | QVQLVESGGGLVQAGGSLRLSCAASGRIFTNNAMGWYRQEPGKERELVAAISRSGGRTYYADSVKGRFTISRDIAKNTVYLQMNSLKPEDTAVYYCAAVHLFYGYNSPFTMDYWGQGTQVTVSS | high polyreactivity
3 | QVQLVESGGGLVQAGGSLRLSCAASGRIFTNYAMGWYRQAPGKERELVATINGGGITNYADSVKVRFTISRDNAKNTVYLQMNSLKPEDNAVYYCATDRLSYGYKPGYTFYYWEQGTQVTVSS | high polyreactivity
4 | QVQLVESGGGLVQAGGSLRLSCAASGRIFTPYAMGWYRKAPGKERELGAVIRDGSTYYADSVKGRFTISRDNAKNTVYLQMNRLKPEDTAVYYCAAVNYYDQYGDYYWGQGTQVTVSS | low polyreactivity
5 | QVQLVESGGGLVQAGGSLRLSCAASGRIFTQYAMGWYRQAPGKERELVAAISYGGGTTHYADSVKGRFTISRDNAKNTVYLQMNSLKPEDTAVYYCAADGGRQVYTQLYDYWGQGTQVTVSS | low polyreactivity
6 | QVQLVESGGGLVQAGGSLRLSCAASGRIFTRNAMGWYRQAPGKEREFVAAISYRGGSTYYADSVKGRFTISRDYAKNTVYLQMNSLKPEDTAVYYCAAEPYIQWVYYGGNGRRYGYWGQGTQVTVSS | high polyreactivity
7 | QVQLVESGGGLVQAGGSLRLSCAASGRIFTRNAMGWYRQAPGKERELVAAITSGGSTNYADSVKGRFTISRDNAKNTVYLQMNSLKPEDTAVYYCNAVYYPYRIWGRVRPSYGYWGQGTQVTVSS | high polyreactivity
8 | QVQLVESGGGLVQAGGSLRLSCAASGRIFTRNTMGWYRQAPGKERELVAAITSRGGSTYYADSVKGRFTISRDNAKITVYLQMNSLKPEETAVYYCAADIPRYYYYWGQGTQVTVSS | high polyreactivity
9 | QVQLVESGGGLVQAGGSLRLSCAASGRIFTRYAMGWYRQAPGKERELVAAINYRGSSTYYADSVKGRFTISRDNAKNTVYLQMNSLKPEDTAVYYCNTYGQTDTYWRYYYWGQGTQVTVSS | high polyreactivity
10 | QVQLVESGGGLVQAGGSLRLSCAASGRIFTRYAMGWYRQAPGKERELVAAITGSGGSTYYADSVKGRFTISRDNAKNTVYLQMNSLKPEDTAVYYCNKVTGRNADRYGYWGQGTQVTVSS | high polyreactivity
11 | QVQLVESGGGLVQAGGSLRLSCAASGRIFTRYAMGWYRQAPWKERELVAVITRSGGSTYYADSVKGRFTISRDNAKNTVYFKMNSLIPEDTAVYYCAVRPYELHRLADQPGGDDYWGQGTQVTVSS | low polyreactivity
12 | QVQLVESGGGLVQAGGSLRLSCAASGRIFTSNTMGWYRQAPGKERELVAAITWRVGSTYYADSVKGRFTISRDNAKNTVYLQMNSLKPEDTAVYYCNAVVLHVTTDNSTFTTDDYWGQGTQVTVSS | low polyreactivity
13 | QVQLVESGGGLVQAGGSLRLSCAASGRIFTSYAMGWYRQAPGKERELVAAINRGGSTYYADSVKGRFTISRDNAKNTVYLQMNSLKPEDTAVYYCAAGTRSRAPYYRTIVDTYGYWGQGTQVTVSS | low polyreactivity
14 | QVQLVESGGGLVQAGGSLRLSCAASGRIFTSYAMGWYRQAPGKERELVAAISGSSASTYYADSVKGRFTISRDNAKNTVYLQMNSLKPEDTAVYYCAAYKYDYRVDTGYDYWGQGTQVTVSS | low polyreactivity
15 | QVQLVESGGGLVQAGGSLRLSCAASGRIFTTYAMGWYRQAPGKERELVAAISRSGGSTYYADSVKGRFTISRDNAKNSVYLQMNSLKPEDTAVYYCAAVPTSNSFRSSFYYWGQGTQVTVSS | high polyreactivity
16 | QVQLVESGGGLVQAGGSLRLSCAASGRIFTTYAMGWYRQAPGKERELVARISSGGTTYYADSVKGRFTISRDNAKNTVYLQMNSLKPEDTAVYYCNVRAVTPTRSRPFRYDYWGQGTQVTVSS | high polyreactivity

Row | Sequence | polyreactivity (PSR sort gate)
17 | QVQLVESGGGLVQAGGSLRLSCAASGRIFTWNAMGWYRQAPGKERDLVARISSGTRTNYADSVKGRFTISRDNAKNTVYLQMNSLKPEDTAVYYCAAQSRPPFVKQYWWQRDYWGQGTQVTVSS | high polyreactivity
18 | QVQLVESGGGLVQAGGSLRLSCAASGRIFTWNAMGWYRQAPGKERELVATINRGGNTNYADSVKGRFTISRDNAKNTVYLQMNSLKPEDTAVYYCAARYHYSNLYRFAYGYWGQGTQVTVSS | high polyreactivity
19 | QVQLVESGGGLVQAGGSLRLSCAASGRIFTYMGWYRQAPGKERELVAGISWRGTSTYYADSVKGRFTISRDNAKNTVYLQMNSLKPEDTAVYYCAAPWAYHVRGDYWGQGTQVTVSS | low polyreactivity
20 | QVQLVESGGGLVQAGGSLRLSCAASGRIFTYNAMGWYRQAPGKERELVAVITSGGSTYYADSVKGRFTISRDNAKNTVYLQMNSLKPEDTAVYYCAARVWGSSQYYYWGQGTQVTVSS | low polyreactivity
21 | QVQLVESGGGLVQAGGSLRLSCAASGRIFTYYAMGWYRQAPGKERELVAAITWSGTGTYYADSVKGRFTISRDNAKNTVYLQMNSLKPEDTAVYYCNRRHALASSYYYWGQGTQVTVSS | low polyreactivity
22 | QVQLVESGGGLVQAGGSLRLSCAASGRIFTYYAMGWYRQAPGKERELVASITGSGGSTDYADSVKGRFTISRDNAKNTVYLQMNSLKPEDTAVYYCAADHSGVSRYDYWGQGTQVTVSS | low polyreactivity
23 | QVQLVESGGGLVQAGGSLRLSCAASGRIFVANGLGWYRQAPGKERELVAAITWSGDNTYYADSVKGRFTISRDNAKNTVYLQMNSLKPEDTAVYYCATPRSWYFPYGYWGQGTQVTVSS | high polyreactivity
24 | QVQLVESGGGLVQAGGSLRLSCAASGRIFVAYTMGWYRQAPGKERELVAAISTNGGRTYYADSVKGRFTISRDNAKNTVYLQMNSLKPEDTAVYYCAAYRGPRADYYWGQGTQVTVSS | high polyreactivity
25 | QVQLVESGGGLVQAGGSLRLSCAASGRIFVDNTMGWYRQAPGKEREFVAVISTSGGRTSYADSVKGRFTISRDNAKNTVYLQMNSLKPEDTAVYYCNALYGRYGWSKNYYWGQGTQVTVSS | high polyreactivity
26 | QVQLVESGGGLVQAGGSLRLSCAASGRIFVDYAMGWERQAPGKERELVAAITYGGGSTHYADSVKGRFTISRDNAKNTVYLQMNSLKPEDTAVYYCAADLFYHSYGYEYWGQGTQGTVSS | low polyreactivity
27 | QVQLVESGGGLVQAGGSLRLSCAASGRIFVENAMGWYRQAPRKERELVAAITSRGGSTYYADSVKGRFTISRDNAKNTVYLQMNSLKPEDTAVYYCNAGKYSRFLYDHNYWGQGTQVTVSS | high polyreactivity
28 | QVQLVESGGGLVQAGGSLRLSCAASGRIFVFNAMGWYRQAPGKERELVATIDRGGSTNYADSVKGRFTISRDNAKNTVYLQMNSLKPEDTAVYYCAAGVVGKRSRTGYYWGQGTQVTVSS | low polyreactivity
29 | QVQLVESGGGLVQAGGSLRLSCAASGRIFVFYVMGWYRQAPGKERELVAAITRTGGSTYYADSVKGRFTISRDNAKNTVYLQMNSLKPEDTAVYYCATRYTRLRHFDYWGQGTQVTVSS | low polyreactivity
30 | QVQLVESGGGLVQAGGSLRLSCAASGRIFVGNAMGWYRQAPGKEWALVAANSGSGDSTYYADSVKGRFTISRDNAKNTVYLQMISLKPEDTAVYYCNVDYDFVIYYYWYYPGYDYWGQGTQVTVSS | low polyreactivity
31 | QVQLVESGGGLVQAGGSLRLSCAASGRIFVGYAMVWYRQAPGKERELVAGISRSGDSTYYADSVKGRFTISRDNAKNTVYLQMNSLKPEDTAVYYCAARIIYWGYYYWGQGTQVTVSS | high polyreactivity
